# Where two headings read alike, the source gives them in different places.
# Legend:
# Test in all cases: EMSA
# AtGAPC1 [1] = target: T1, AtGAPC1 (Arabidopsis thaliana, UniProt P25858 1-338)
# GAPDH from rabbit muscle = GAPDH from rabbit muscle (rabbit, UniProt P46406 1-333)
# AtGAPC2 = AtGAPC2 (Arabidopsis thaliana, UniProt Q9FX54 1-338)
# AtGAPC1 [2] = target: T1, AtGAPC1; remark: listed apart in the source
# T1 sequence (P25858 whole entry): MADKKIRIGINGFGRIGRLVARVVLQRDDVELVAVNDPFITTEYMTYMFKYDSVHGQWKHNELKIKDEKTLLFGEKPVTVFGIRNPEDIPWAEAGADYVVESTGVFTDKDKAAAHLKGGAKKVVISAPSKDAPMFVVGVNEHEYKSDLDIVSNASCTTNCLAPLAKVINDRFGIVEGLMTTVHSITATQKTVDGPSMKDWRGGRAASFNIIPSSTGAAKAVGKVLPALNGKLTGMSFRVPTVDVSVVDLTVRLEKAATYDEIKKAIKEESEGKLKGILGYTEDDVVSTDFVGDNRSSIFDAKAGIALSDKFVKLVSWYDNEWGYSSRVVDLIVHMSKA
# GAPDH from rabbit muscle, sequence (P46406 whole entry): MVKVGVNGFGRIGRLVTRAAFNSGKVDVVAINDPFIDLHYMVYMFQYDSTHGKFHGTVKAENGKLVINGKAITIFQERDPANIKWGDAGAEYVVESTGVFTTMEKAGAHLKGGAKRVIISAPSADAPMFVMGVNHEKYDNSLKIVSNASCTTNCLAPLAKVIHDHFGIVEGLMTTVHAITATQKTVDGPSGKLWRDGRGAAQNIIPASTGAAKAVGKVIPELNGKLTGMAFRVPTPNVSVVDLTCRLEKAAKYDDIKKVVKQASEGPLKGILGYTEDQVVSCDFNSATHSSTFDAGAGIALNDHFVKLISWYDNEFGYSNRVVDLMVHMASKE
# AtGAPC2, sequence (Q9FX54 whole entry): as the sequence (P25858 whole entry) above, with N61H, I65V, E68D, A92G, Y98F, A227S, L274M counted along it
Binder,binding result (AtGAPC1 [1]),binding result (GAPDH from rabbit muscle),binding result (AtGAPC2),binding result (AtGAPC1 [2])
AUAUAUUCUCCGGAGAA (ssRNA) [M1-RNA (consensus)],binds,–,–,–
ACCAGAUUUUUUUCGCCGGAGUUUGUUUUGAUCCA (ssRNA) [SAP3 M1],–,binds,binds,binds
"UUAGCGUUUUAAUGUUGAGUGAGUAAGUUAAGGGGUU (ssRNA) [Random RNA (AT5G16470 5'-UTR, mutated M2)]",no binding,–,–,–
AUAUAUGAGAUUAGGGUUU (ssRNA) [M2-RNA (consensus)],binds,–,–,–

# Reference: paper doi:10.1101/2021.02.18.431817
